We go through seven molecules from patent US20200231538, “NOVEL COMPOUNDS AND THERAPEUTICS USES THEREOF” (Centauri Therapeutics Limited (GB/GB), published 2020).

The target in data set [1] is T1, EGFR (Homo sapiens, UniProt P00533 P00533:25-1210). Description: flow; 10 nM (9.8 at 1 uM); anti-alpha-Gal IgG recruitment to A431 cells; PBS, 5 mM MgCl2, RT. To be noted: tags: A431 cells (ATCC CRL-1555), endogenous overexpression. On the procedure: (§1) A431 cells (ATCC CRL-1555) were harvested and resuspended at 5×10⁶ cells/mL in phosphate buffered saline (PBS) (Sigma D8662)+0.1% BSA (Bovine Serum Albumin—Sigma A2153)+0.1 mg/mL Yeast t-RNA (Invitrogen 15401-011)+5 mM MgCl₂ (Sigma M1028) and incubated on ice for 30 minutes to block. 5×10⁵ cells were then incubated with compound at various concentrations as described below or buffer alone at room temperature, shaking at 450 rpm for 1 hour. The cells were washed with 3×200 μL PBS+0.1% BSA, prior to adding 50 μL of Anti-alpha galactosyl IgG antibody (custom purification from human IVIG, Rockland Immunochemicals, Inc.) at 35 μg/mL in PBS+0.1% BSA and incubating at 4° C. for 1 hour. The cells were further washed with 3×200 μL PBS+0.1% BSA before being treated with 100 μL 1:40 dilution of Anti-Human IgG-PE (phycoerythrin) (Biolegend 409303) at 4° C. for 1 hour. After a final wash of 3×200 μL PBS+0.1% BSA the cells were resuspended in 200 μL PBS+0.1% BSA and evaluated on a flow cytometer (FC500 Beckman Coulter). Data from all samples were analysed in the Kaluza software package (Beckman Coulter).
(§2) The fold shift over background was calculated by dividing the Mean Fluorescence Intensity (MFI) obtained in the presence of 10 nM or 1 μM alphamer by the Mean Fluorescence Intensity (MFI) obtained in the absence of alphamer. […]

For data set [2], the target named is T1, EGFR. Description: flow; 10 nM (18.4 at 1 uM); anti-alpha-Gal IgG recruitment to A431 cells; PBS, 5 mM MgCl2, RT. To be noted: tags: A431 cells (ATCC CRL-1555), endogenous overexpression. On the procedure:
as §1, §2

Data set [3] concerns the target T1, EGFR. Description: flow; 10 nM (16.3 at 1 uM); anti-alpha-Gal IgG recruitment to A431 cells; PBS, 5 mM MgCl2, RT. To be noted: tags: A431 cells (ATCC CRL-1555), endogenous overexpression. On the procedure:
as §1, §2

Data set [4] addresses T1, EGFR. Description: flow; 10 nM (7.5 at 1 uM); anti-alpha-Gal IgG recruitment to A431 cells; PBS, 5 mM MgCl2, RT. The following applies: tags: A431 cells (ATCC CRL-1555), endogenous overexpression. On the procedure:
as §1, §2

For data set [5], the target named is T2, PSMA (Homo sapiens, UniProt Q04609 Q04609:1-750). Description: flow; 10 nM (11.1 at 1 uM); anti-alpha-Gal IgG recruitment to LNCaP cells; PBS, 5 mM MgCl2, RT. The following applies: tags: LNCaP cells (ATCC CRL-1740), endogenous overexpression. On the procedure:
as §1, with “LNCaP” for “A431”, “CRL-1740)” for “CRL-1555)”, “The cells were washed with 3×200 μL PBS+0.1% BSA, prior to adding 50 μL of Anti-alpha galactosyl IgG antibody (custom purification from human IVIG, Rockland Immunochemicals, Inc.) at 35 μg/mL in PBS+0.1% BSA and incubating at 4° C. for 1 hour.” left out
(§3) The fold shift over background was calculated by dividing the Mean Fluorescence Intensity (MFI) obtained in the presence of 10 nM or 1 μM alphamer by the Mean Fluorescence Intensity (MFI) obtained in the absence of alphamer. The fold shift over background is reported as a geometric mean with standard error in brackets. The number of independent experiments is also reported. […]

For data set [6], the target named is T2, PSMA. The data set is described as follows: flow; 10 nM (8.5 at 1 uM); anti-alpha-Gal IgG recruitment to LNCaP cells; PBS, 5 mM MgCl2, RT. To be noted: tags: LNCaP cells (ATCC CRL-1740), endogenous overexpression. On the procedure: as §1, with “LNCaP” for “A431”, “CRL-1740)” for “CRL-1555)”, “The cells were washed with 3×200 μL PBS+0.1% BSA, prior to adding 50 μL of Anti-alpha galactosyl IgG antibody (custom purification from human IVIG, Rockland Immunochemicals, Inc.) at 35 μg/mL in PBS+0.1% BSA and incubating at 4° C. for 1 hour.” left out
as §3

For data set [7], the target named is T2, PSMA. Description: flow; 10 nM (8.6 at 1 uM); anti-alpha-Gal IgG recruitment to LNCaP cells; PBS, 5 mM MgCl2, RT. To be noted: tags: LNCaP cells (ATCC CRL-1740), endogenous overexpression. On the procedure: as §1, with “LNCaP” for “A431”, “CRL-1740)” for “CRL-1555)”, “The cells were washed with 3×200 μL PBS+0.1% BSA, prior to adding 50 μL of Anti-alpha galactosyl IgG antibody (custom purification from human IVIG, Rockland Immunochemicals, Inc.) at 35 μg/mL in PBS+0.1% BSA and incubating at 4° C. for 1 hour.” left out
as §3

T2 sequence (Q04609 whole entry, one chain of several): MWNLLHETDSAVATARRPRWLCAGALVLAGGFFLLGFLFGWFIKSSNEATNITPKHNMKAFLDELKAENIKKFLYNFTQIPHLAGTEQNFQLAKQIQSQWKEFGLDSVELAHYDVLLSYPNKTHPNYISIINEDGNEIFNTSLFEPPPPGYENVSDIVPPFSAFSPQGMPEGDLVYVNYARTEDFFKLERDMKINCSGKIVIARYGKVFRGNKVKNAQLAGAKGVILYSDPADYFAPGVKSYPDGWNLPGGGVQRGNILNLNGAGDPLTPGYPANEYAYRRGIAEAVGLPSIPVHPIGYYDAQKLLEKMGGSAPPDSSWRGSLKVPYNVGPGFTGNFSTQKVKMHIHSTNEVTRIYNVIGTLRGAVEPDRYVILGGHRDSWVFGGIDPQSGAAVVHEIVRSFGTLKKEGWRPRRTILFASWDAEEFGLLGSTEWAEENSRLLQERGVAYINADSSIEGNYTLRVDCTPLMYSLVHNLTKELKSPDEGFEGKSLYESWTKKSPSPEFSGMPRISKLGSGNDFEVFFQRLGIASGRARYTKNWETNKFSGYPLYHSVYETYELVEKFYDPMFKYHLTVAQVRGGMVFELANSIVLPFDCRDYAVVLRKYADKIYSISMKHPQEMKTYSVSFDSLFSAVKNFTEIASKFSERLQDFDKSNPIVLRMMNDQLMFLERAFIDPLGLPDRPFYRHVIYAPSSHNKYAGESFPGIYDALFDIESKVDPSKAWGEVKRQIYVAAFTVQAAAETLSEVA

B1: Example 1 (EGFR aptamer 1-alpha-Gal double cluster 1) (ssRNA)
RNA: GGGAUUUAAUCGCCGUAGAAAAGCAUGUCAAAGCCGGAACCC
modifications: 2'-F pyrimidines, 2'-OMe at most purines (mG, most mA), remaining A 2'-OH; 5' H2N-(CH2)6 linked to alpha-Gal cluster; 3' idT
Regarding B1, in data set [1], the binding signal is 7.7 fold MFI over background.

B2: Example 2 (EGFR aptamer 1-alpha-Gal double cluster 2) (ssRNA)
RNA: B1 RNA
modifications: 2'-F pyrimidines, 2'-OMe at most purines (mG, most mA), remaining A 2'-OH; 5' H2N-(CH2)6 linked to alpha-Gal cluster; 3' idT
In data set [2], B2 registered a binding signal of 10.7 fold MFI over background.

B3: Example 3 (EGFR aptamer 1-alpha-Gal double cluster 3) (ssRNA)
RNA: B1 RNA
modifications: 2'-F pyrimidines, 2'-OMe at most purines (mG, most mA), remaining A 2'-OH; 5' H2N-(CH2)6 linked to alpha-Gal cluster; 3' idT
Molecule B3 registered a binding signal in data set [3] of 9.7 fold MFI over background.

B4: Example 4 (EGFR aptamer 1-alpha-Gal double cluster 4) (ssRNA)
RNA: B1 RNA
modifications: 2'-F pyrimidines, 2'-OMe at most purines (mG, most mA), remaining A 2'-OH; 5' H2N-(CH2)6 linked to alpha-Gal cluster; 3' idT
In turn, B4 yielded a binding signal in data set [4] of 3.4 fold MFI over background.

B5: Example 5 (PSMA aptamer A9g-alpha-Gal double cluster 1) (ssRNA)
RNA: GGGACCGAAAAAGACCUGACUUCUAUACUAAGUCUACGUUCCC
modifications: 2'-F pyrimidines, 2'-OH purines; 5' H2N-(CH2)6 linked to alpha-Gal cluster; 3' idT
Regarding B5, the binding signal in data set [5] turned out to be 7.8 fold MFI over background.

B6: Example 6 (PSMA aptamer A9g-alpha-Gal double cluster 5) (ssRNA)
RNA: B5 RNA
modifications: 2'-F pyrimidines, 2'-OH purines; 5' H2N-(CH2)6 linked to alpha-Gal cluster; 3' idT
B6 yielded a binding signal in data set [6] of 5.33 fold MFI over background.

B7: Example 7 (PSMA aptamer A9g-alpha-Gal double cluster 2) (ssRNA)
RNA: B5 RNA
modifications: 2'-F pyrimidines, 2'-OH purines; 5' H2N-(CH2)6 linked to alpha-Gal cluster; 3' idT
Regarding B7, the binding signal in data set [7] was found to be 3.82 fold MFI over background.
